Where only a bound is given, the exact number is not on record here.

In assay [1] the target is T1, EBV gp350, truncated construct comprising residues 1-470 of the wild-type protein, C-terminal polyhistidine … (Epstein-Barr virus, UniProt P03200 1-470).
T1 construct: range 1-470; Produced in Sf9 insect cells by baculovirus; The methods say truncated 1-470, yet the results and discussion call the titrated ligand 'full-length'; also called Epstein-Barr virus glycoprotein gp350/220; not shown: C-terminal polyhistidine tag
T1 sequence: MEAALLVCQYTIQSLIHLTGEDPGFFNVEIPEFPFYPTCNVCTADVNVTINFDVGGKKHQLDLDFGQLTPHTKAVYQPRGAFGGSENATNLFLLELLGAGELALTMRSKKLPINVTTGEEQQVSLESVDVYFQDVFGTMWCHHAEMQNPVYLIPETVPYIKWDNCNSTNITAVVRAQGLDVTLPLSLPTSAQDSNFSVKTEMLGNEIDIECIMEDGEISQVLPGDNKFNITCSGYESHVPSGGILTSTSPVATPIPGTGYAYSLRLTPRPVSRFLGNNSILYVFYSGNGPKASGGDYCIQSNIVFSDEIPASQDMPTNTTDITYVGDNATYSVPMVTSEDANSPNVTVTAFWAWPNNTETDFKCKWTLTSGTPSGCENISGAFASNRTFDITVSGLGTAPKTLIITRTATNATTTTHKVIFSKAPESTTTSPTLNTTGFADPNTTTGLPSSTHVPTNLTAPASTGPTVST
Nature of the assay: NMR titration, upper limit from slow exchange (min. shift difference about 60 Hz, diffusion-limited on rate assumed).

Assay [2] addresses T2, Human C3d (human, UniProt P01024 996-1303, limits assumed).
T2 construct: domain: C3d; also called complement component 3 proteolytic fragment C3d
Kind of assay: ITC, 20 °C, 1/3x PBS, two site binding model (weak site).
Procedure: (§1) ITC experiments were carried out on a Microcal VP-ITC (GE Healthcare, Piscataway, N.J.) housed in the Biophysics Core facility on the UCDSOM campus. […] Data was analyzed using the software provided by the manufacturer (Origin, version 7.0 MicroCal) using either single site or two site binding models (55).

The target of assay [3] is T1, EBV gp350, truncated construct …. Nature of the assay: ITC, 20 °C, 1/3x PBS, single site binding model.
For assay [4], the target named is T2, Human C3d. Nature of the assay: ITC, 20 °C, 1/3x PBS, two site binding model (tight site).
Procedure: as §1

T2 sequence (P01024 996-1303 limits assumed): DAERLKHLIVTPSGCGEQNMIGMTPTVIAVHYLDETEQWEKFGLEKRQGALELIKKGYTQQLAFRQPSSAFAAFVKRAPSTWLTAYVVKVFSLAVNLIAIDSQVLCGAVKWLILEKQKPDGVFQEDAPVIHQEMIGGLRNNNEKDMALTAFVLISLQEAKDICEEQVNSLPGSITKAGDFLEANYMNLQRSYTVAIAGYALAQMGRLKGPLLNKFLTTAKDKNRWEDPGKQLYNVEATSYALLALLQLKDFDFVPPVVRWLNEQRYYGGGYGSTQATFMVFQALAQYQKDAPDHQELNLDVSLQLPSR

B1: Human CR2 SCR1-2 (short consensus repeat domains 1 and 2 of human complement receptor 2) (receptor)
chain: ISCGSPPPILNGRISYYSTPIAVGTVIRYSCSGTFRLIGEKSLLCITKDKVDGTWDKPAPKCEYFNKYSSCPEPIVPGGYKIRGSTPYRHGDSVTFACKTNFSMNGNKSVWCQANNMWGPTRLPTCVS
notes: The ITC paragraph says only 'CR2 SCR1-2', so it is not clear which preparation gave the ITC values; also called CR2/CD21 SCR1-2; SCR1-2 domains of CR2
As for B1, the Kd is not above 60000 nM in assay [1], 160000 nM with Human C3d [2], 14 nM in assay [3] and 130 nM with Human C3d [4].

The values above are taken from patent US20130190477A1 (REGENTS OF THE UNIVERSITY OF COLORADO, published 2013).
